Experimental data published in the RNAGym collection of RNA variant scans (doi:10.1073/pnas.2313332121).

B1: TPR t1 (parent)
chain: GACCAAUCUGCCCUCAGAGCUCGAGAACAUCUUCGGAUGCAGAGGAGGCAGGCUUCGGUGGCGCGAUAGCGCCAACGUCCUCAACCUCCAAUGCAUCCCACCACAUGAUGAUGCCUGAAGAGCCUUGGUUUUUUG

Variants of: B1
Experiment: polymerase ribozyme fitness, log enrichment relative to wild type (log ratio); higher = more active; in vitro selection for triplet polymerase activity
How it was run: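 Mutant libraries for each subunit of a heterodimeric triplet polymerase ribozyme were made by PCR and then transcribed. Each library underwent one round of in vitro selection in triplicate: annealing with a biotinylated primer, the partner subunit and triplets, frozen incubation at −7 °C, gel excision of extended constructs, streptavidin-bead capture and RT-PCR. Input and output libraries were Illumina-sequenced, and only genotypes with ≥10 input reads and ≥1 read per output were kept. Fitness is the logarithm, base 2, of genotype enrichment over wild-type enrichment, computed from inverse-variance-weighted replicate averages.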

Row | Variant | polymerase ribozyme fitness (log ratio)
1 | G10C G60U G135C | -0.497
2 | G10A C22U G36A A43C C49G U92A C98A G120C U125G | -7.92
3 | G10A A95C | -0.471
4 | U9G G61C | -1.59
5 | G10U G39C A46C U116G | -3.17
6 | C11A C49A U59A A91G | -2.95
7 | G10U C49U | -0.491
8 | U9G G52U C80A G110U | -5.82
9 | U9G G69U C73U U106C | 0.373
10 | G10A A16U A66C C88A U92C G120U | -3.94
11 | G10A G93A | 0.205
12 | U9G U38G U55C | -0.21
13 | G10U C15G G19U G63A G113U C124A | -5.07
14 | C11A C12G C70A A111C | -3.93
15 | U9G C56A C79G | -1.55
16 | G10C C15U C53U C123A | 0.897
17 | C11A G17U | -3.57
18 | C11A G42U U106A | -3.49
19 | G10U U59C A95U C102U | -3.58
20 | G10C C73G C85G | -2.53
21 | G10A G61A | 0.248
22 | G10C G19C A43G C72U U112C C123A | -1.54
23 | U9G C94A | -0.976
24 | U9G C72A A95G | 0.389

Row | Variant | polymerase ribozyme fitness (log ratio)
25 | G10U G63U | -1.31
26 | G10C G42C G77A C85A C86G C114A | -5.24
27 | G10U G61A C123A U126G | -1.39
28 | U9G G35U C40A G93C C114U | -5.91
29 | G10C C11U C20U G48A C82U | -3
30 | C11A A74G | -1.56
31 | G10C C11G C22G C76U | -4.64
32 | G10U A29G G52U C79G | -2.85
33 | G10A C62A U96A | -2.02
34 | C11A C20U G42C C53U | -4.13
35 | G10U G110C | -4.86
36 | G10U C12A G60A | -0.594
37 | G10A A24C A29G C34U G44A C53U C98U A111U | -7.41
38 | G10C G47U C89U | -5.13
39 | C11A C15A G51U G71A C99A G113C | -8.01
40 | G10A G42U C49A G61C C98A U112G U130G | -7.46
41 | G10U C72U C80U | -0.683
42 | G10A U33C A90G A118G | -6.66
43 | G10C C49U C94U | -1.58
44 | G10C C15G G69C | -4.46
45 | G10C C99U | -4.44
46 | U9G C72G C86A | -1.02
47 | U9G C62A U92A C104U | -4.41
48 | G10A U96G | -0.411

Row | Variant | polymerase ribozyme fitness (log ratio)
49 | C11A A27G | -6.66
50 | G10C C12A A18C G42U G71A G117U G122U U130G | -3.23
51 | U9G C62G C82A | -0.591
52 | C11A G45U G71A A121C U132A | -0.447
53 | C11A G47C | -2.77
54 | G10C U38A G63C U130G | -2.42
55 | G10A C88G A111C | -0.763
56 | C11A C64A A108U G110A | -6.85
57 | G10A G47C G63A C97U C101A C102U | -8.22
58 | U9G C72U C102A G122A U125A | -1.75
59 | G10A C15A G44U C56U A74G | -3.61
60 | G10A G19A C70A U96A C104U | -6.15
61 | G10U C72U | -0.415
62 | G10U C72A | -0.423
63 | G10C G110C | -6.69
64 | U9G U14A G77U U92G C124U | -3.63
65 | G10U C12U C22A C56U U112C | -1.17
66 | G10C U32C G52A G69C U112A G128A | -4.78
67 | G10U G19C A37U C72A C123G U130C | -1.39
68 | G10U C89A C114A | -2.81
69 | G10A G52U C56G C98U G113U | -6.91
70 | G10C C64U C79U A105G | -3.38
71 | U9G G61U G77A C97G U130C | -5.47
72 | U9G G19U A46C C56U | -3.13

Row | Variant | polymerase ribozyme fitness (log ratio)
73 | U9G U87A A100C | -0.443
74 | G10C A37C A66U | -2.37
75 | U9G G42U U55A | -1.32
76 | G10U G47A | -0.776
77 | G10A C13U C64A C70A G113A U125C | -6.12
78 | G10A C20U G65A C70A A91U C104G G120U | -6.74
79 | G10U U38G U78A G128A | -3.77
80 | U9G G39A G57A C114G G117A | -6.32
81 | C11A C28G G77U C98U G110U G135U | -3.7
82 | U9G G35U A111U | -6.59
83 | U9G G36U G60C U78A C88A | -1.68
84 | G10U C70A | -1.66
85 | G10A A37U G45U C80A G110C | -7.42
86 | C11A A27G A41U C49G G61U | -3.34
87 | U9G G19A A37U C70U U78A | -4.73
88 | G10A C13U C86G | -0.113
89 | G10A G19U G61U | -4.88
90 | U9G G48U U87G C115G | 0.077
91 | G10U A43U G45C U78A | -2.4
92 | G10A C79A C123U | 1.23
93 | C11A C40A C49G C94U | -3.79
94 | G10A G60C C124A | 1.12
95 | U9G G42U G45C U92G U129A | -6.64
96 | C11A G17A C124A G128A | -5.02

Row | Variant | polymerase ribozyme fitness (log ratio)
97 | C11A G36U G48C | -3.57
98 | U9G C56A A66C C72U | -1.3
99 | G10A G45U G113A | -1.45
100 | G10A U112G | 1.07
101 | G10U C98A C123A | -4.36
102 | G10A C86A | -0.0637
103 | G10U C28G G60A C85A U131G | -4.5
104 | G10U G60C G122A | 0.255
105 | G10A U54A A119G | 1
106 | G10C A41C G71C G122A | -2.21
107 | C11A G39A U54A C72A | -1.51
108 | G10U A18U A29U U54A A121C | -1.32
109 | G10C C12G C72A A105U | -3.93
110 | U9G C76U | 0.331
111 | G10C U112G | 0.149
112 | G10A G52U G63A C70G | -2.51
113 | G10A C15A C94A | -3.08
114 | C11A A121C | 1.02
115 | C11A C12A C28U C31G G52A G63C G113C U116A | -5.83
116 | C11A | -1.27
117 | G10U U21G C70A | -5.22
118 | G10C A43G G44C C49U G52C C56G G77A | -6.25
119 | G10A C13U A27U | -2.05
120 | U9G C70U U81C G110U | -3.84

Row | Variant | polymerase ribozyme fitness (log ratio)
121 | C11A C64U U78C C80U A83G | -4.97
122 | C11A G39A | -2.5
123 | G10A G48A G52A | -1.11
124 | G10C A18U G93A U130C | -3.83
125 | G10A C72G G77C A95G C101G | -3.03
126 | G10U G69U | 0.293
127 | G10U C86A C102U | -2.34
128 | G10A G45U | -1.26
129 | G10U U55A G71C | -1.11
130 | G10C U14A G48A G110A | -3.91
131 | G10C G71A U81C A100U | -3.62
132 | C11A C73U C76A U78G U131A | -4.06
133 | G10A C97A | -4.44
134 | G10A C28U A46U A83C A84C C124A | -2.98
135 | G10A A18U C40U U59G G93A | -2.28
136 | G10U G47C G51A C53G C56U | -2.84
137 | G10U A103G | -6.29
138 | G10C G36A G71A | -2.47
139 | C11A A18U A68G G120U | -4.2
140 | G10C C76G | -1.17
141 | G10U U59C U96G G117A | -4.44
142 | G10U C73A U78G A111G | 0.173
143 | U9G U59G | 0.701
144 | G10U C94U | -0.599

Row | Variant | polymerase ribozyme fitness (log ratio)
145 | G10U A91G C101U | -0.603
146 | G10U C13G G45U C56A U87A C94U C124G | -0.526
147 | G10C C11A | -1.06
148 | U9G G60A U92G | -2.36
149 | C11A C49A G69A G113A G128C | -6.11
150 | G10U A26G | -2.71
151 | G10C U78C U106A U109G | -4.27
152 | G10U G71C G135U | -3.12
153 | G10C A18C C20U C56U | -3.11
154 | G10A C49G U133A | -0.21
155 | U9G G39U | -0.00423
156 | C11A C12U U38A U78C U96A | -2.53
157 | U9G G19U G45U C114A | 1.58
158 | C11A C56U | -1.61
159 | G10C U92C G113U | -4.69
160 | G10A C56A G110A | -0.729
161 | C11A G45U U125G G127A | -4
162 | G10U G36C C86G G128C | -5.29
163 | G10U G42U G45A G61U C85U | -2.25
164 | U9G G69C | -2.16
165 | U9G G69A | -2.25
166 | C11A C72G A111U | -6.18
167 | C11A C12A U14G A18C G63C C85U A103G U106A G107A A108C C114U G117C | -6.98
